B1: CPEB3 Ribozyme (parent)
chain: UAACAGGGGGCCACAGCAGAAGCGUUCACGUCGCAGCCCCUGUCAGAUUCUGGUGAAUCUGCGAAUUCUGCUGUAUAUCUC

Variants of: B1
Assay: self-cleavage, relative activity (ratio to wild type); higher = more cleavage; in vitro, sequencing
In short: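 Relative activity compares each variant's cleaved/total read fraction with that of the unmutated ribozyme. To get these fractions, barcoded CPEB3 ribozyme libraries from rounds of error-prone PCR were transcribed with T7 RNA polymerase for 5 hours at 37°C and then given 15 min of DNase I treatment before EDTA was added. The RNAs were reverse transcribed with template switching and sequenced on Illumina, and DNA sequencing linked barcodes to variants. A minimum of 5 reads applied, and three batches were averaged.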

| Variant | self-cleavage |
| --- | --- |
| UAACAGGGGGCCACAGCAGAAGCGUUCACGUCGCAGCCCCUGUCAGAUUCUGGCGAAUCUGCGAAUCCUGCUGUAUAUCUC [U54C U67C] | 0.26 |
| UAACAGGGGGCCACAGCAGAAGCGUUCACGUCGCAGCCCCUGUCAGAUUCUGGCGAAUCUGCGAAUUCAGCUGUAUAUCUC [U54C U69A] | 0.57 |
| UAACAGGGGGCCACAGCAGAAGCGUUCACGUCGCAGCCCCUGUCAGAUUCUGGCGAAUCUGCGAAUUCCGCUGUAUAUCUC [U54C U69C] | 0.52 |
| UAACAGGGGGCCACAGCAGAAGCGUUCACGUCGCAGCCCCUGUCAGAUUCUGGCGAAUCUGCGAAUUCGGCUGUAUAUCUC [U54C U69G] | 0.43 |
| UAACAGGGGGCCACAGCAGAAGCGUUCACGUCGCAGCCCCUGUCAGAUUCUGGCGAAUCUGCGAAUUCUGCAGUAUAUCUC [U54C U72A] | 0.62 |
| UAACAGGGGGCCACAGCAGAAGCGUUCACGUCGCAGCCCCUGUCAGAUUCUGGCGAAUCUGCGAAUUCUGCCGUAUAUCUC [U54C U72C] | 1.08 |
| UAACAGGGGGCCACAGCAGAAGCGUUCACGUCGCAGCCCCUGUCAGAUUCUGGCGAAUCUGCGAAUUCUGCGGUAUAUCUC [U54C U72G] | 0.87 |
| UAACAGGGGGCCACAGCAGAAGCGUUCACGUCGCAGCCCCUGUCAGAUUCUGGCGAAUCUGCGAAUUCUGCUGAAUAUCUC [U54C U74A] | 1.25 |
| UAACAGGGGGCCACAGCAGAAGCGUUCACGUCGCAGCCCCUGUCAGAUUCUGGCGAAUCUGCGAAUUCUGCUGCAUAUCUC [U54C U74C] | 1.21 |
| UAACAGGGGGCCACAGCAGAAGCGUUCACGUCGCAGCCCCUGUCAGAUUCUGGCGAAUCUGCGAAUUCUGCUGGAUAUCUC [U54C U74G] | 1.39 |
| UAACAGGGGGCCACAGCAGAAGCGUUCACGUCGCAGCCCCUGUCAGAUUCUGGCGAAUCUGCGAAUUCUGCUGUAAAUCUC [U54C U76A] | 1.17 |
| UAACAGGGGGCCACAGCAGAAGCGUUCACGUCGCAGCCCCUGUCAGAUUCUGGCGAAUCUGCGAAUUCUGCUGUACAUCUC [U54C U76C] | 1.06 |
| UAACAGGGGGCCACAGCAGAAGCGUUCACGUCGCAGCCCCUGUCAGAUUCUGGCGAAUCUGCGAAUUCUGCUGUAGAUCUC [U54C U76G] | 0.98 |
| UAACAGGGGGCCACAGCAGAAGCGUUCACGUCGCAGCCCCUGUCAGAUUCUGGCGAAUCUGCGAAUUCUGCUGUAUAACUC [U54C U78A] | 1.03 |
| UAACAGGGGGCCACAGCAGAAGCGUUCACGUCGCAGCCCCUGUCAGAUUCUGGCGAAUCUGCGAAUUCUGCUGUAUACCUC [U54C U78C] | 0.97 |
| UAACAGGGGGCCACAGCAGAAGCGUUCACGUCGCAGCCCCUGUCAGAUUCUGGCGAAUCUGCGAAUUCUGCUGUAUAGCUC [U54C U78G] | 1.07 |
| UAACAGGGGGCCACAGCAGAAGCGUUCACGUCGCAGCCCCUGUCAGAUUCUGGCGAAUCUGCGAAUUCUGCUGUAUAUCAC [U54C U80A] | 1.17 |

| Variant | self-cleavage |
| --- | --- |
| UAACAGGGGGCCACAGCAGAAGCGUUCACGUCGCAGCCCCUGUCAGAUUCUGGCGAAUCUGCGAAUUCUGCUGUAUAUCCC [U54C U80C] | 1.09 |
| UAACAGGGGGCCACAGCAGAAGCGUUCACGUCGCAGCCCCUGUCAGAUUCUGGGGAAUCUGCGAAUUCUGCUGUAUAUCUC [U54G] | 0.77 |
| UAACAGGGGGCCACAGCAGAAGCGUUCACGUCGCAGCCCCUGUCAGAUUCUGGGGGAUCUGCGAAUUCUGCUGUAUAUCUC [U54G A56G] | 0.46 |
| UAACAGGGGGCCACAGCAGAAGCGUUCACGUCGCAGCCCCUGUCAGAUUCUGGGGUAUCUGCGAAUUCUGCUGUAUAUCUC [U54G A56U] | 0.31 |
| UAACAGGGGGCCACAGCAGAAGCGUUCACGUCGCAGCCCCUGUCAGAUUCUGGGGAGUCUGCGAAUUCUGCUGUAUAUCUC [U54G A57G] | 0.43 |
| UAACAGGGGGCCACAGCAGAAGCGUUCACGUCGCAGCCCCUGUCAGAUUCUGGGGAUUCUGCGAAUUCUGCUGUAUAUCUC [U54G A57U] | 0.25 |
| UAACAGGGGGCCACAGCAGAAGCGUUCACGUCGCAGCCCCUGUCAGAUUCUGGGGAAUCUGCGGAUUCUGCUGUAUAUCUC [U54G A64G] | 0.6 |
| UAACAGGGGGCCACAGCAGAAGCGUUCACGUCGCAGCCCCUGUCAGAUUCUGGGGAAUCUGCGUAUUCUGCUGUAUAUCUC [U54G A64U] | 0.28 |
| UAACAGGGGGCCACAGCAGAAGCGUUCACGUCGCAGCCCCUGUCAGAUUCUGGGGAAUCUGCGAGUUCUGCUGUAUAUCUC [U54G A65G] | 0.3 |
| UAACAGGGGGCCACAGCAGAAGCGUUCACGUCGCAGCCCCUGUCAGAUUCUGGGGAAUCUGCGAAUUCUGCUGUUUAUCUC [U54G A75U] | 0.96 |
| UAACAGGGGGCCACAGCAGAAGCGUUCACGUCGCAGCCCCUGUCAGAUUCUGGGGAAUCUGCGAAUUCUGCUGUAUGUCUC [U54G A77G] | 0.74 |
| UAACAGGGGGCCACAGCAGAAGCGUUCACGUCGCAGCCCCUGUCAGAUUCUGGGGAAUCUGUGAAUUCUGCUGUAUAUCUC [U54G C62U] | 0.19 |
| UAACAGGGGGCCACAGCAGAAGCGUUCACGUCGCAGCCCCUGUCAGAUUCUGGGGAAUCUGCGAAUUUUGCUGUAUAUCUC [U54G C68U] | 0.68 |
| UAACAGGGGGCCACAGCAGAAGCGUUCACGUCGCAGCCCCUGUCAGAUUCUGGGGAAUCUGCGAAUUCUGAUGUAUAUCUC [U54G C71A] | 0.42 |
| UAACAGGGGGCCACAGCAGAAGCGUUCACGUCGCAGCCCCUGUCAGAUUCUGGGGAAUCUGCGAAUUCUGCUGUAUAUAUC [U54G C79A] | 1.18 |
| UAACAGGGGGCCACAGCAGAAGCGUUCACGUCGCAGCCCCUGUCAGAUUCUGGGGAAUCUGCAAAUUCUGCUGUAUAUCUC [U54G G63A] | 0.91 |
| UAACAGGGGGCCACAGCAGAAGCGUUCACGUCGCAGCCCCUGUCAGAUUCUGGGGAAUCUGCUAAUUCUGCUGUAUAUCUC [U54G G63U] | 1.03 |
